Biological target: CXCL12 (Homo sapiens) (UniProt P48061)
Experiment: isothermal fluorescence titration
Settings: FITC-labelled tenascin-C

Sequence of CXCL12 (Homo sapiens) (P48061 22-89): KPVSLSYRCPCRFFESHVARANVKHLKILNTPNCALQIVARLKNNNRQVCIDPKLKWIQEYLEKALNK

Tenascin-C, Q80YX1 showed a Kd of 1.01 µM.

From article PMC10572825
